Results from paper PMC12974146.

Target: Recombinant CdaA fragment spanning residues 88-273 (CdaA_(88-273)), Leptospira interrogans LIC10844 (Leptospira interrogans serovar Copenhageni strain Fiocruz L1-130)
Experiment: SEC; TSKgel G4000SWXL column, PBS as mobile phase, 1.0 mL min^-1; 50 µg of protein injected; MW estimated from a standard curve of 15-600 kDa protein standards

“Recombinant CdaA fragment spanning residues 88-273 (CdaA_(88-273)), Leptospira interrogans LIC10844 (domain or fragment)” was tested, and the stoichiometry N was 2.
